# IntAct's records for PubMed 24630722
# B1: Interferon-inducible protein AIM2 (Homo sapiens), O14862 (parent)
# chain: MESKYKEILLLTGLDNITDEELDRFKFFLSDEFNIATGKLHTANRIQVATLMIQNAGAVSAVMKTIRIFQKLNYMLLAKRLQEEKEKVDKQYKSVTKPKPLSQAEMSPAASAAIRNDVAKQRAAPKVSPHVKPEQKQMVAQQESIREGFQKRCLPVMVLKAKKPFTFETQEGKQEMFHATVATEKEFFFVKVFNTLLKDKFIPKRIIIIARYYRHSGFLEVNSASRVLDAESDQKVNVPLNIIRKAGETPKINTLQTQPLGTIVNGLFVVQKVTEKKKNILFDLSDNTGKMEVLGVRNEDTMKCKEGDKVRLTFFTLSKNGEKLQLTSGVHSTIKVIKAKKKT
# Variants of: B1
# Details: with asc_human PYCARD
row,Variant,effect of a mutation on the interaction
1,G38E,decreasing interaction strength
2,K39E,decreasing interaction strength
3,Y74R,disrupting interaction strength
4,L10A;L11A,disrupting interaction strength
5,R24E,disrupting interaction strength
6,D15R,disrupting interaction strength
7,F27G,disrupting interaction strength
